Assay results taken from patent US20050164339.

T1: LctMutA
T1 chain: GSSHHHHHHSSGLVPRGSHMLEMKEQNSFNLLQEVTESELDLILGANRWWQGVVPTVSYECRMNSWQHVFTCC

T2: His6-LctA modified by LctM
T2 chain: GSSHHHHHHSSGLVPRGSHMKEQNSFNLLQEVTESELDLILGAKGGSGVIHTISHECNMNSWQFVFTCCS

T3: His6-LctA
T3 chain: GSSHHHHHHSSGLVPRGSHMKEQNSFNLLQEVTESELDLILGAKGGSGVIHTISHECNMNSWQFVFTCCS


Tests used:
[1] = molecular target: T1, LctMutA
[2] = molecular target: T2, His6-LctA modified by LctM
[3] = molecular target: T3, His6-LctA

Protein | removal of the leader peptide [1] | proteolytic cleavage of the leader (MALDI-TOF MS; sensitivity of indicator strain L. lactis 117) [2] | proteolytic cleavage of the leader (MALDI-TOF MS) [3] | proteolytic cleavage (MALDI-MS) [2]
GST-Lpd (protein) MKIVLQNNEQDCLLACYSMILGYFGRDVAIHELYSGEMIPPDGLSVSYLKNINMKHQVSMHVYKTDKKNSPNKIFYPKMLPVIIQWNDNHFVVVTKIYRKNVTLIDPAIGKVKYNYNDFMKKFSGYIITLSPNSSFTKKKRISEIIFPLK | the protease domain of LctT can remove the leaser peptide and the His-tag | Both unmodified and modified His-LctA were substrates for GST-Lpd | Both unmodified and modified His-LctA were substrates for GST-Lpd | 
Endoproteinase Lys-C from Lysobacter enzymogenes (protein) GVSGSCNIDVVCPEGNGHRDVIRSVAAYSKQGTMWCTGSLVNNSANDKKMYFLTANHCGMTTAAIASSMVVYWNYQNSTCRAPGSSSSGANGDGSLAQSQTGAVVRATNAASDFTLLELNTAANPAYNLFWAGWDRRDQNFAGATAIHHPNVAEKRISHSTVATEISGYNGATGTSHLHVFWQASGGVTEPGSSGSPIYSPEKRVLGQLHGGPSSCSATGADRSDYYGRVFTSWTGGGTSATRLSDWLDAAGTGAQFIDGLDSTGTPPV |  |  |  | cleavage of the amide bond between Lys25 and Gly26 and removal of the leader sequence and the His6-tag
